Source: patent publication US20250235545A1, “POLYPEPTIDE CONJUGATE AND USE THEREOF” (SHANGHAI CHIXI BIOMEDICAL TECHNOLOGY CO., LTD, priority 2024, published 2025)
Converted amounts (≈) assume the structure as drawn. Read-outs that look alike come from different tables or passages of the source. Where a SMILES comes first, the peptide text is derived from it. The star is where a group is joined. X6 = CCCCCN(CCc1c2c(nc3ccccc13)-c1cc3c(c(=O)n1C2)COC(=O)[C@]3(O)CC)*; X1 = CC[C@@]1(O)C(=O)OCc2c1cc1n(c2=O)Cc2c-1nc1ccccc1c2CCN(C1CCC1)*; X3 = CC[C@@]1(O)C(=O)OCc2c1cc1n(c2=O)Cc2c-1nc1ccccc1c2CCN(C1CC1)*; Propanoyl(3-maleimido) = O=C1C=CC(=O)N1CCC(=O)*; PEG6 = NCCOCCOCCOCCOCCOCCOCCC(=O)O

How the values were obtained:
[1] = tested on: A2780 ovarian cancer tumor model; assay: Efficacy in animal model of A2780 ovarian cancer, 30 mg/kg once a week for two weeks (Example 41); format: in vivo, BALB/c mice
Description: Test objective: To further compare the antitumor efficacy of different polypeptide Linkers in an animal tumor model of A2780 ovarian cancer.
(§1) Test drug: Polypeptide conjugate and normal saline control group.
8×10^6 corresponding cells were injected into right axillas of nude mice subcutaneously. […] The negative control group was administered normal saline. Administration was performed once a week for two weeks.

[2] = MTD determination in mice (Examples 27, 36, 44); format: in vivo; settings: female, mouse, in vivo; mice, monitored for 14 d; Table 4
From the text: Test animals: 6-8 weeks old mice, all female; mice were grouped randomly, with six mice in each group, administered with drugs at different concentration gradients separately and monitored for 14 d. A mouse was euthanized at a loss of 20% of its initial weight and deemed to have died of poisoning.

[3] = Homogenate activation efficiency, heart tissue (Examples 28, 37); format: in vitro ADME; settings: pH 5.0, 37° C., 2 h; Table 5
[4] = Tumor homogenate activation efficiency, non-small cell lung cancer tissue (Examples 28, 37); format: in vitro ADME; settings: pH 5.0, 37° C., 2 h; Table 5
Description: (§2) Buffer preparation: 50 mM PH buffer (MES), 250 mM NaCl, pH adjusted to 5.0 with 0.5 M of sodium hydroxide.
(§3) The polypeptide conjugate was prepared into a 1 mg/ml solution with pH 5.0 buffer, 100 μg of tumor tissue homogenate was added, (the tumor tissue homogenate was the homogenate of tumor tissues prepared with a Jingxin F6/10 handheld homogenizer), and the solution was placed at 37° C. for 2 h. The tumor tissue homogenate could effectively activate the polypeptide conjugate and release Belotecan, and the activation efficiencies of the drugs in tumor tissues were compared by high-performance liquid chromatography (HPLC) allowing determination of a decrease in the compounds and an increase in Belotecan:
(§4) Release percentage=peak area of Belotecan/total peak area of Belotecan and all other Belotecan-containing compounds
(§5) The polypeptide conjugate was prepared into a 1 mg/ml solution with pH 5.0 buffer, 100 μg of tumor tissue homogenate was added, (the tumor tissue homogenate was the homogenate of tumor tissues prepared with a Jingxin F6/10 handheld homogenizer), and the solution was placed at 37° C. for 2 h. The tumor tissue homogenate could effectively activate the polypeptide conjugate and release Belotecan, and the activation efficiencies of the drugs in tumor tissues were compared by HPLC allowing determination of a decrease in the compounds and an increase in Belotecan: […]

[5] = tested on: colo320 colorectal cancer tumor model
Method in brief: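 Dosing was once a week for four weeks, with saline as control, in randomized groups of three mice. Groups were formed after subcutaneous colo320 xenografts (7.5×10^6 cells, right chest) grew to ≥120 mm^3 in female 6–8-week-old BALB/c nude mice.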

[6] = tested on: A549 (non-small cell lung cancer); assay: cells; format: cell-based; settings: CCK8, 48 h; Table 1
Method in brief: (§6)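 Viability read by CCK8 absorbance at 450 nm (~2 h stain) after 48 h drug treatment at 37° C. of 5,000 cells/well, triplicate wells, in RPMI1640 or DMEM high-glucose medium containing 10% FBS and 1 mM pyruvate. Survival relative to 0.1% DMSO controls gave IC50 values.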

A2780 (ovarian cancer) = assay: cells; format: cell-based; settings: CCK8, 48 h; Table 1
Method in brief: as §6

SJSA-1 (sarcoma tissue) = assay: cells; format: cell-based; settings: CCK8, 48 h; Table 1
Method in brief: as §6

[7] = tested on: SKBR3 (breast cancer tissue); assay: cells; format: cell-based; settings: CCK8, 48 h; Table 1
Method in brief: as §6

[8] = Tumor homogenate activation efficiency, breast cancer tissue (Examples 28, 37); format: in vitro ADME; settings: pH 5.0, 37° C., 2 h; Table 5
Description: as §2, §3, §4, §5

[9] = Tumor homogenate activation efficiency, sarcoma tissue (Examples 28, 37); format: in vitro ADME; settings: pH 5.0, 37° C., 2 h; Table 5
Description: as §2, §3, §4, §5

[10] = Tumor homogenate activation efficiency, small cell lung cancer tissue (Example 28); format: in vitro ADME; settings: pH 5.0, 37° C., 2 h; Table 5
Description: as §2, §3, §4

[11] = tested on: sarcoma SJSA-1 tumor model; settings: Table 2
Method in brief: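 Female BALB/c nude mice (6-8 weeks) bearing subcutaneous right-chest SJSA-1 xenografts from 2×10^7 cells were randomized, three per group, once tumors reached at least 100 mm^3. Treatment given once a week for three weeks starting day 1; saline controls.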

[12] = tested on: sarcoma SJSA-1 tumor model; assay: Efficacy in animal model of sarcoma SJSA-1, 30 mg/kg once a week for two weeks (Example 40); format: in vivo, BALB/c mice; settings: 30 mg/kg once a week for two weeks
Description: Test objective: To further compare the antitumor efficacy of different polypeptide Linkers in an animal tumor model of sarcoma SJSA-1.
as §1
The control group was administered normal saline. Administration was performed once a week for two weeks.

[13] = Tumor homogenate activation efficiency, ovarian cancer tissue (Examples 28, 37); format: in vitro ADME; settings: pH 5.0, 37° C., 2 h; Table 5
Description: as §2, §3, §4, §5

[14] = 15 mg/kg once a week for four weeks, Table 3
[15] = 45 mg/kg once a week for four weeks, Table 3
[16] = 15 mg/kg once a week for three weeks
[17] = 45 mg/kg once a week for three weeks
[18] = Table 14 (Example 43), dose 45 mg/kg, once a week for four weeks, BALB/c mice

SMILES	Mouse weight (%) on Day 14 ([1]; Day 14)	MTD at 14 d [2] [mg/kg]	Percentage of release efficiency (%) Heart tissue [3] [%]	Percentage of release efficiency (%) Non-small cell lung cancer tissue (A549) [4] [%]	Mouse weight (%) [5, 14]	Mouse weight (%) [5, 15]	IC50 A549 (non-small cell lung cancer) [6] [µg/mL]	IC50 A2780 (ovarian cancer) (A2780 (ovarian cancer)) [µg/mL]	IC50 SJSA-1 (sarcoma tissue) (SJSA-1 (sarcoma tissue)) [µg/mL]	IC50 SKBR3 (breast cancer tissue) [7] [µg/mL]	Percentage of release efficiency (%) Breast cancer tissue (SKBR3) [8] [%]	Percentage of release efficiency (%) Sarcoma tissue (SJSA1) [9] [%]	Percentage of release efficiency (%) Small cell lung cancer tissue (NCI-H841) [10] [%]	Mouse weight (%) [11, 16]	Mouse weight (%) [11, 17]	Mouse weight (%) on Day 14 ([12]; Day 14)	Percentage of release efficiency (%) Ovarian cancer tissue (A2780) [13] [%]	Mouse weight (%) [5, 18]	further results
CCCCCN(CCc1c2c(nc3ccccc13)-c1cc3c(c(=O)n1C2)COC(=O)[C@]3(O)CC)C(=O)CNC(=O)[C@H](CC(N)=O)NC(=O)[C@H](C)NC(=O)[C@H](C)NC(=O)CCOCCOCCOCCOCCOCCOCCNC(=O)CCN1C(=O)C=CC1=O [MI-6PEG-AANG-D4] ({Propanoyl(3-maleimido)-PEG6}-AANG-X6)	+9.6%	350	2.4	78.7	+40%	+18%	6.37 (≈ 5.05 µM)	4.88 (≈ 3.87 µM)	2.52 (≈ 2 µM)	4.54 (≈ 3.6 µM)	80.7	72.4	67.2	+27%	+26%	+4.1%	86.7	–	A2780 (ovarian cancer) mean tumor volume (mm^3) Day 1 ([1]; Day 1): 138.58 mm^3; A2780 (ovarian cancer) mean tumor volume (mm^3) Day 4 ([1]; Day 4): 278.49 mm^3; A2780 (ovarian cancer) mean tumor volume (mm^3) Day 7 ([1]; Day 7): 624.53 mm^3; A2780 (ovarian cancer) mean tumor volume (mm^3) Day 10 ([1]; Day 10): 791.18 mm^3; A2780 (ovarian cancer) mean tumor volume (mm^3) Day 14 ([1]; Day 14): 977.54 mm^3; Growth rate (%) of A2780 (ovarian cancer) on Day 14 ([1]; Day 14): 705.40%; colo320 (colorectal cancer cell) growth rate (%) [5, 14]: 870.11%; colo320 (colorectal cancer cell) mean tumor volume (mm^3) [5, 14]: 963.7 mm^3; colo320 (colorectal cancer cell) growth rate (%) [5, 15]: 544.80%; colo320 (colorectal cancer cell) mean tumor volume (mm^3) [5, 15]: 603.4 mm^3; SJSA-1 (sarcoma tissue) mean tumor volume (mm^3) [11, 16]: 1305.6 mm^3; SJSA-1 (sarcoma) Growth rate (%) [11, 16]: 1081.87%; SJSA-1 (sarcoma tissue) mean tumor volume (mm^3) [11, 17]: 994.5 mm^3; SJSA-1 (sarcoma) Growth rate (%) [11, 17]: 842.80%; SJSA-1 (sarcoma tissue) mean tumor volume (mm^3) Day 1 ([12]; Day 1): 131.57 mm^3; SJSA-1 (sarcoma tissue) mean tumor volume (mm^3) Day 4 ([12]; Day 4): 385.46 mm^3; SJSA-1 (sarcoma tissue) mean tumor volume (mm^3) Day 7 ([12]; Day 7): 607.62 mm^3; SJSA-1 (sarcoma tissue) mean tumor volume (mm^3) Day 10 ([12]; Day 10): 847.33 mm^3; SJSA-1 (sarcoma tissue) growth rate (%) on Day 14 ([12]; Day 14): 941.81%; SJSA-1 (sarcoma tissue) mean tumor volume (mm^3) Day 14 ([12]; Day 14): 1239.14 mm^3
CC[C@@]1(O)C(=O)OCc2c1cc1n(c2=O)Cc2c-1nc1ccccc1c2CCN(C(=O)CNC(=O)[C@H](CC(N)=O)NC(=O)[C@H](C)NC(=O)[C@H](C)NC(=O)CCOCCOCCOCCOCCOCCOCCNC(=O)CCN1C(=O)C=CC1=O)C1CC1 [MI-6PEG-AANG-D6] ({Propanoyl(3-maleimido)-PEG6}-AANG-X3)	+8.5%	200	2.5	73.1	+27%	+17%	1.55 (≈ 1.26 µM)	0.77 (≈ 0.625 µM)	0.49 (≈ 0.398 µM)	1.81 (≈ 1.47 µM)	82.1	79.9	76	+24%	+3%	−0.6%	75.9	+17%	–
CC[C@@]1(O)C(=O)OCc2c1cc1n(c2=O)Cc2c-1nc1ccccc1c2CCN(C(=O)CNC(=O)[C@H](CC(N)=O)NC(=O)[C@H](C)NC(=O)[C@H](C)NC(=O)CCOCCOCCOCCOCCOCCOCCNC(=O)CCN1C(=O)C=CC1=O)C1CCC1 [MI-6PEG-AANG-D7] ({Propanoyl(3-maleimido)-PEG6}-AANG-X1)	+15.6%	250	2	77	+26%	+31%	1.89 (≈ 1.52 µM)	1.21 (≈ 0.972 µM)	0.53 (≈ 0.426 µM)	2.64 (≈ 2.12 µM)	78.8	64.3	66.1	+31%	+26%	+1.6%	84.5	+31%	–
